Measured values published in article PMC10354202.
One block for each substance: values may come before it.

Key:
[1] = target: actin from rabbit skeletal muscle (rabbit) (UniProt P68135)
[2] = target: (Ig32)2-(R3^IVVI)-(Ig32)2 polyprotein, talin R3 domain with the IVVI mutation; assay: single-molecule magnetic tweezers; talin R3 polyprotein tethered between glass and bead; vinculin allowed to bind at 8.5 pN for a variable time, then a 40 pN pulse to force dissociation; unbinding times at 40 pN (square-root histogram); PBS with 10 mM ascorbic acid, pH 7.3
[3] = target: (Ig32)2-(R3^IVVI)-(Ig32)2 polyprotein, talin R3 domain with the IVVI mutation; assay: single-molecule magnetic tweezers; talin R3 polyprotein tethered between glass (HaloTag) and streptavidin-coated bead (biotinylated AviTag); vinculin in solution (20 nM FLV); constant low force (~8.5 pN, up to ~9-10 pN); PBS with 10 mM ascorbic acid, pH 7.3; Kd from the paper's kinetic model
[4] = target: (Ig32)2-(R3^IVVI)-(Ig32)2 polyprotein, talin R3 domain with the IVVI mutation; assay: single-molecule magnetic tweezers; talin R3 polyprotein tethered between glass and bead; vinculin in solution (20 nM FLV); constant higher forces (12.5 pN, 15 pN; above ~10 pN), reversible binding and unbinding steps; unbinding rates against force fitted to the Bell-Evans model; PBS with 10 mM ascorbic acid, pH 7.3
[5] = target: (Ig32)2-(R3^IVVI)-(Ig32)2 polyprotein, talin R3 domain with the IVVI mutation; assay: magnetic tweezers; details: parent: est. 9 s, read off a plot

Chain of full-length human vinculin, wild type (P18206 other isoform, or with tags, fused parts or gaps): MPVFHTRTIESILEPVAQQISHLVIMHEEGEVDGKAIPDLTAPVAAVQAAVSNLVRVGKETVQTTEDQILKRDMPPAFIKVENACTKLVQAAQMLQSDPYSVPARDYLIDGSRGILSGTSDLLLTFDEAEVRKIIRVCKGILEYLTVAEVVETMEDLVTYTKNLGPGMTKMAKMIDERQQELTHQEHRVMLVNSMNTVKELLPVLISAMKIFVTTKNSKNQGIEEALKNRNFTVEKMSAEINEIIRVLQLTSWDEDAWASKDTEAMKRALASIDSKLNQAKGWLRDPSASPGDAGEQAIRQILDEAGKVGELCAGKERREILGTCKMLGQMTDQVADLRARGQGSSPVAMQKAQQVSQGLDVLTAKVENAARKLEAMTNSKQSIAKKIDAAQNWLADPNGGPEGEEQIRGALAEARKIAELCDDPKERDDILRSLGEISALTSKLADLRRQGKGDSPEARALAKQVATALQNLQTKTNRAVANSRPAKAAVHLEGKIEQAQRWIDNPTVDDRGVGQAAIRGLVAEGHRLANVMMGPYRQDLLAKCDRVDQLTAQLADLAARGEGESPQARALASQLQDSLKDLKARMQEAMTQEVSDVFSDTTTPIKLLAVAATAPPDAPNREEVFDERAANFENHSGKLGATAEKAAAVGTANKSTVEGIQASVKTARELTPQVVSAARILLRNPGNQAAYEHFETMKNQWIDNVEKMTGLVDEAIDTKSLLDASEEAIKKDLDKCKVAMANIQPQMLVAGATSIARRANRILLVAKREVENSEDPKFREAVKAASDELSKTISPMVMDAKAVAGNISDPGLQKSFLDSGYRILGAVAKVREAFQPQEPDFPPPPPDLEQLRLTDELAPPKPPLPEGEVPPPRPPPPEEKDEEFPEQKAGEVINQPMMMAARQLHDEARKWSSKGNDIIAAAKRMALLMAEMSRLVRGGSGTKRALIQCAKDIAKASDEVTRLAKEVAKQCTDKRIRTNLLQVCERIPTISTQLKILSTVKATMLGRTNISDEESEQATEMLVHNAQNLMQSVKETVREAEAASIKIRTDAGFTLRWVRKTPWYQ

ratio of bundled actin of 5M against that of the 4M variant, TIRF microscopy, no talin-VBS1 [1]: 1.4 fold over 4M
Substance: full-length human vinculin K944A-R945A-D1013A-E1015A-E986A (5M) (from UniProt P18206-2 1-1066) (natural protein)

timescale of maturation from the weak to the stable bound state [2]: 37 s
unbinding time at 40 pN, stronger binding mode (t2) [2]: 7.4 s
unbinding time at 40 pN, weak binding mode (t1) [2]: 0.4 s
Kd, initial bound state, low forces (up to ~9-10 pN) [3]: 0.2 nM
Kd, mature bound state, low forces (up to ~9-10 pN) [3]: 4 pM
timescale of unbinding at ~8.5 pN [3]: 1 hour
Kd, forces above ~10 pN [4]: 5 nM
k0, intrinsic off-rate (Bell-Evans fit of the unbinding rates, zero force) [4]: 0.0066 s⁻¹
unbinding rate of Fig. 1G extrapolated to ~8.5 pN [4]: 0.01 s⁻¹
Substance: full-length human vinculin, wild type (from UniProt P18206-2 1-1066) (natural protein)

other: average unbinding time at 40 pN [5]: 20 s
Substance: full-length human vinculin, wild type (from UniProt P18206-2) T12
